Reference: the supplement of paper PMC12764529
± gives the half width of the 95% confidence interval.

Columns and labels:
[1] = folding stability dG unfold from trypsin proteolysis; higher = more stable
Outline: (§1)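 Unfolding free energy was derived, per protease or combined, against a sequence-predicted unfolded-state K50 and a shared folded-state K50, starting from K50 inferred by Bayesian fitting of sequencing counts. Digestion with trypsin and chymotrypsin was carried out on designed mini-proteins under 80 residues without cysteine in a PA-tagged cDNA display construct. Only designs with AlphaFold2 dimer inter-PAE above 15 were kept.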

[2] = folding stability dG unfold (combined trypsin and chymotrypsin); higher = more stable
Outline: as §1

[3] = folding stability dG unfold from chymotrypsin proteolysis; higher = more stable
Outline: as §1

Row | Sequence | folding stability dG unfold [1] [kcal/mol] | folding stability dG unfold [2] [kcal/mol] | folding stability dG unfold [3] [kcal/mol]
1 | SAGGSAGGSAGGKKTINVEIVKIEVTKNKKTNEYTVKIYIKDTGKTITLTVKPGDIIKISAGGSAGGSAGGS [r10_819_TrROS_Hall] | 1.42 ± 0.064 | 3.1 ± 0.21 | 3.28 ± 0.1
2 | SAGGSAGGSAGGKKTITVPKGAVVRITYKNGEKKEVKAGETITIEDLPEDVKIEVVKVKKSAGGSAGGSAGG [r7_968_TrROS_Hall] | 1.73 ± 0.06 | 2.19 ± 0.094 | 2.44 ± 0.03
3 | SAGGSAGGSAGGKKVKITVVLEFDGVLLVAEAEIEFDENGKIVEIKVKVELFPAPEEGEESAGGSAGGSAGG [r7_135_TrROS_Hall] | 3.21 ± 0.36 | 2.96 ± 0.48 | 2.39 ± 0.18
4 | SAGGSAGGSAGGKKVTITLKDANGKELKIEVKEGEEVTIEVGGKKYKLTVKDGKIELKPVSAGGSAGGSAGG [r7_510_TrROS_Hall] | 4.03 ± 0.28 | 4.61 ± 0.44 | 4.67 ± 0.23
5 | SAGGSAGGSAGGKKYKIKVYVKDKKTKKWKKIKEIEVDTKEEALEAIKKLPPNYEVKIVPSAGGSAGGSAGG [r7_307_TrROS_Hall] | 4.11 ± 0.14 | 4.91 ± 0.14 | 5.04 ± 0.068
6 | SAGGSAGGSAGGKKYKVVSIEKTKDYVRITIYNEETGELKTFTFPPGSTVTIKPGDTLTSAGGSAGGSAGGS [r10_834_TrROS_Hall] | 3.88 ± 0.2 | 4.42 ± 0.12 | 4.53 ± 0.15
7 | SAGGSAGGSAGGKPKKILNIELVLKGKDGKKYKLKIEIYNYPDKPKIYITFPDGTTIEASAGGSAGGSAGGS [r10_404_TrMRF] | 3.54 ± 0.13 | 5.15 ± 0.21 | 5.28 ± 0.19
8 | SAGGSAGGSAGGKPKLIVRVKIKNENGEEIEIEIEVETLDEAKEAAKKLGFEIVEVEVLSAGGSAGGSAGGS [r10_882_TrROS_Hall] | 3.94 ± 0.23 | 3.28 ± 0.19 | 2.54 ± 0.081
9 | SAGGSAGGSAGGKPVIYRIEVRLPDSPEREIFEIEVPPDRPEVAEELAKLLGPNVKMEPLSAGGSAGGSAGG [r11_250_TrMRF] | -0.166 ± 0.1 | -0.387 ± 0.38 | -0.577 ± 0.49
10 | SAGGSAGGSAGGKSYTDPNSNTVTTLDEGPGFGKVTTTTYKPEEPVPLETTESIIGPVLSSAGGSAGGSAGG [r7_343_JUSTAS] | 0.367 ± 0.04 | 0.273 ± 0.24 | -0.026 ± 0.11
11 | SAGGSAGGSAGGKTITLPPGMSEEELLEALKKAKPGDTITIEVDGKTYTLKVENGKITLTSAGGSAGGSAGG [r7_560_TrROS_Hall] | 2.31 ± 0.14 | 3.56 ± 0.12 | 3.92 ± 0.12
12 | SAGGSAGGSAGGKTIVVELEDGSKATITVDEDGNVTVEVYDEKTGEKKTFTIPAEALKPSAGGSAGGSAGGS [r10_838_TrROS_Hall] | 2.53 ± 0.16 | 2.73 ± 0.16 | 2.95 ± 0.066
13 | SAGGSAGGSAGGKTLRIKVEETEYVVLFPNTGRLLVIPPGYEAEIELDDAPDVLILGRPPSAGGSAGGSAGG [r11_939_TrMRF] | 0.123 ± 0.18 | 1.34 ± 0.13 | 1.79 ± 0.16
14 | SAGGSAGGSAGGKTLTLVFKTKEEAEEAAKKLGFKKVEVKEFKNEDGEKYLVVKIELKPSAGGSAGGSAGGS [r10_494_TrROS_Hall] | 2.43 ± 0.058 | 2.94 ± 0.22 | 3.1 ± 0.047
15 | SAGGSAGGSAGGKTVLISLEDLEALKKLPPGAKVKIEPIKTPEGTVYRVNVETGKIEKVPSAGGSAGGSAGG [r7_765_TrROS_Hall] | -0.24 ± 0.21 | 0.0992 ± 0.22 | 0.175 ± 0.26
16 | SAGGSAGGSAGGKTVWIPWDDLEELKDLPPGKKRTIHLWNPKNGRWYRITVTDNNIEIERSAGGSAGGSAGG [r7_765_TrROS] | 2.36 ± 0.061 | 2.86 ± 0.078 | 3.088 ± 0.013
17 | SAGGSAGGSAGGKTYTAEELRSLPPGAKITLADGKVIEVSIEQLEKEIKPGDTVRIERVPSAGGSAGGSAGG [r7_643_TrROS_Hall] | 0.542 ± 0.043 | 0.172 ± 0.09 | -0.404 ± 0.17
18 | SAGGSAGGSAGGKTYTLTFKAKIEVSEDDVVVITPPNGKKLVVPKENVKVHPDGTVTVTGSAGGSAGGSAGG [r7_684_TrMRF] | 1.28 ± 0.097 | 1.19 ± 0.2 | 1.27 ± 0.2

Row | Sequence | folding stability dG unfold [1] [kcal/mol] | folding stability dG unfold [2] [kcal/mol] | folding stability dG unfold [3] [kcal/mol]
19 | SAGGSAGGSAGGKVEEVEKLAEELEKELGVDIGEVEVLDHPDKFRYRIRIPDLDLDLEFSAGGSAGGSAGGS [r10_161_TrMRF] | -0.529 ± 0.18 | -0.103 ± 0.11 | -0.0226 ± 0.17
20 | SAGGSAGGSAGGKVKVLSVFELPNNKRLVLIETPSGKKILIVTDSSDPDKVKEKAKEIASAGGSAGGSAGGS [r10_472_TrMRF] | 1.54 ± 0.02 | 1.73 ± 0.037 | 1.822 ± 0.017
21 | SAGGSAGGSAGGKVLHVPYENIEEKIKEAEEKYPNKEILIHAYLPNGKLLKTIKIKVKKSAGGSAGGSAGGS [r10_741_TrMRF] | 1.29 ± 0.026 | 1.23 ± 0.053 | 1.18 ± 0.03
22 | SAGGSAGGSAGGKVSEIDLSGDKVVVTVKGPGGSVVREVHPDKTLEQVLDELLENPELVDSAGGSAGGSAGG [r7_373_TrMRF] | -0.176 ± 0.1 | 1.13 ± 0.057 | 1.55 ± 0.05
23 | SAGGSAGGSAGGKWHLITFTITMEMYVMKFDPENGKWKPVDPIPMEIQITFLIPPGDPISAGGSAGGSAGGS [r10_610_TrROS] | 3.77 ± 0.25 | 4.65 ± 0.47 | 5.08 ± 0.2
24 | SAGGSAGGSAGGKWIMVDSPEDIKEFAEDQGYKIKVDNVHPFPGDKNHYMVWIEIEPPGSAGGSAGGSAGGS [r10_126_TrROS] | 1.19 ± 0.12 | 1.18 ± 0.14 | 1.13 ± 0.18
25 | SAGGSAGGSAGGKYKILKIEKYKLPNGGYYYKALVYEEENGEWKEIYAKANSAKNFKFESAGGSAGGSAGGS [r10_326_TrMRF] | 0.828 ± 0.049 | 1.08 ± 0.1 | 1.16 ± 0.11
26 | SAGGSAGGSAGGLEIELPNARIRIEELEGEPRRIRVRVEFFPPDGGRLSAEAEFDILPDLSAGGSAGGSAGG [r17_184_TrMRF] | 2.66 ± 0.056 | 2.57 ± 0.092 | 2.5 ± 0.08
27 | SAGGSAGGSAGGLEKLVELLAPGKPLEVLRIDPTPTYVRIVVRHPDYPVDTVILADPDVISAGGSAGGSAGG [r7_303_TrMRF] | 0.237 ± 0.046 | -0.0768 ± 0.051 | -0.617 ± 0.11
28 | SAGGSAGGSAGGLLEELKAKGYTVLSTPVPSPPDGVPTRTVLAKKGEGTVTFVVPAALLSAGGSAGGSAGGS [r10_35_JUSTAS] | -0.172 ± 0.18 | 0.287 ± 0.23 | 0.525 ± 0.17
29 | SAGGSAGGSAGGLPEGWVLKTETKTVKLKVKVKVDGKEYEFEVEVKVTRIELVPKEELESAGGSAGGSAGGS [r10_300_TrROS_Hall] | 3.04 ± 0.23 | 3.76 ± 0.11 | 4.08 ± 0.2
30 | SAGGSAGGSAGGLPKPVTVTLSRPEGGETLTLTFPSGTTPEEVRAAVEAEPDLSILSISSSAGGSAGGSAGG [r7_624_JUSTAS] | 1.2 ± 0.074 | 1.1 ± 0.059 | 0.892 ± 0.063
31 | SAGGSAGGSAGGLPPFDLGFESVEVEEVFPDGPVVVTVRLPDRTVRLVVVGGRIVRVEPSSAGGSAGGSAGG [r17_396_TrMRF] | 1.68 ± 0.036 | 1.75 ± 0.085 | 1.97 ± 0.048
32 | SAGGSAGGSAGGLRAKIVEIKEVKVKKLYKDPETNEWYEEEKTVKVIKIKIEPAKPGEKISAGGSAGGSAGG [r17_530_TrROS_Hall] | 0.537 ± 0.08 | 0.947 ± 0.13 | 1.14 ± 0.044
33 | SAGGSAGGSAGGLSPGDEIKIRIMIFYRDPGSGNMRPIQPFPITIKIEPPPPKPKDPNNNSAGGSAGGSAGG [r7_522_TrROS] | 2.27 ± 0.1 | 3.08 ± 0.12 | 3.82 ± 0.085
34 | SAGGSAGGSAGGLTFRLPDGTRVRVRVELNEDGELRITVEVEPLPPPPPKVEFYSEEELKSAGGSAGGSAGG [r7_660_TrROS_Hall] | 2.72 ± 0.076 | 2.92 ± 0.12 | 3.06 ± 0.08
35 | SAGGSAGGSAGGLWLTFNFRLTFFNPDGQAMEIEIPIEIRIPPPPVTVPDPDGEEYKYDSAGGSAGGSAGGS [r10_330_TrROS] | 2.39 ± 0.07 | 2.87 ± 0.18 | 3 ± 0.069
